In patent US20230052680A1:

Legend:
[1] = target: human FGFR2b (beta)-Fc (human) (UniProt P21802); assay: SPR (Biacore T200); hFGFR2b-Fc amine-coupled to CM5 chip, antibody injected at 0-200 nM
[2] = target: human FGFR2b (beta)-Fc (human) (UniProt P21802); assay: surface plasmon resonance (Biacore T200), hFGFR2b-Fc amine-coupled to a CM5 chip, antibody injected
[3] = target: human FGFR2b on cells (human) (UniProt P21802); assay: flow cytometry on FGFR2b expressing KATOIII cells
[4] = target: recombinant human FGFR2b-Fc (murine Fc) (human) (UniProt P21802); assay: ELISA, plate coated with 0.1 ug/ml human FGFR2b-Fc, anti-human IgG HRP detection
[5] = target: human FGFR2b on cells (human) (UniProt P21802); assay: flow cytometry on KATOIII cells; sample name as printed 'KATOIII_36C 01nM_023.fcs' (no decimal point printed)
[6] = target: human FGFR2b on cells (human) (UniProt P21802); assay: flow cytometry on KATOIII cells; sample name as printed 'KATOIII_36C 05nM_022.fcs' (no decimal point printed)
[7] = target: human FGFR2b on cells (human) (UniProt P21802); assay: flow cytometry on KATOIII cells; sample name as printed 'KATOIII_36C 0004nM_025.fcs' (no decimal point printed)
[8] = target: human FGFR2b on cells (human) (UniProt P21802); assay: flow cytometry on KATOIII cells; sample name as printed 'KATOIII_36C 002 nM_024.fcs' (no decimal point printed)
[9] = target: human FGFR2b on cells (human) (UniProt P21802); assay: flow cytometry on KATOIII cells; sample name as printed 'KATOIII_36C 00009nM_026.fcs' (no decimal point printed)
[10] = target: human FGFR2b (beta)-Fc (human) (UniProt P21802); assay: ELISA, plate coated with HuFGFR2b

B1: Ab hu36-2 (antibody, human IgG1, V domains shown)
VH: QVQLVQSGAEVKKPGSSVKVSCKASGYTFTSYNMHWVRQAPGQGLEWIGAIFPENGDTSYNQKFKGRATITADKSTSTAYMELSSLRSEDTAVYYCARGGFDYWGQGTTVTVSS
VL: DIQMTQSPSSLSASVGDRVTITCKASQDVSTNVAWYQQKPGKAPKLLIFSASYRYTGVPSRFSGSGSGTDFTFTISSLQPEDIATYYCQQHYSSPYTFGQGTKLEIK
B1 was tested. Which Kd [1] did it give?
The Kd was 0.189 nM.

And the Kd [2]?
Its Kd is 0.187 nM.

And the koff [2]?
The koff was 2.39e-05 s⁻¹.

What about the kon [2] of the same binder?
The kon was 128000 M⁻¹ s⁻¹.

B2: Ab 36c (antibody, V domains shown)
VH: QPYLQQSGAELVRPGASVKMSCKASGYTFTSYNMHWVKQTPRQGLEWIGAIFPENGDTSYNQKFKGKATLTVDKSSSTAYMQLSSLTSEDSAVYFCARGGFDYWGQGTTLTVSS
VL: DIVMTQSHKFMSTSVGDRVSITCKASQDVSTNVAWYQQKPGQSPKLLIFSASYRYTGVPDRFAGSGSGTDFTFTISSVQAEDLAVYYCQQHYSSPYTFGGGTKLDIK
B2 was tested. Which EC50 [3] did it give?
Its EC50 is 8 nM.

And the Kd [1]?
Its Kd is 0.187 nM.

What about the EC50 (read off the curve) [4] of the same binder?
The EC50 (read off the curve) was 0.3 nM.

What about the Kd [2] of the same binder?
Its Kd is 0.189 nM.

And the koff [2]?
Its koff is 2.44e-05 s⁻¹.

What about the kon [2] of the same binder?
Its kon is 129000 M⁻¹ s⁻¹.

What about the Mean : FITC-A [5] of the same binder?
Its Mean : FITC-A is 455.

What about the Mean : FITC-A [6] of the same binder?
The Mean : FITC-A was 1800.

And the Mean : FITC-A [7]?
Its Mean : FITC-A is 128.

What about the Mean : FITC-A [8] of the same binder?
The Mean : FITC-A was 199.

What about the Mean : FITC-A [9] of the same binder?
Its Mean : FITC-A is 121.

B3: Ab 36 (antibody, V domains shown)
VH: QPYLQQSGAELVRPGASVKMSCKASGYTFTSYNMHWVKQTPRQGLEWIGAIFPENGDTSYNQKFKGKATLTVDKSSSTAYMQLSSLTSEDSAVYFCARGGFDYWGQGTTLTVSS
VL: DIVMTQSHKFMSTSVGDRVSITCKASQDVSTNVAWYQQKPGQSPKLLIFSASYRYTGVPDRFAGSGSGTDFTFTISSVQAEDLAVYYCQQHYSSPYTFGGGTKLDIK
For B3, which EC50 (read off the curve) [10] is on record?
Its EC50 (read off the curve) is 0.2 nM.
